In PMC9706563 (Journal of Medicinal Chemistry, 2022):
Ends that are not written are not given here.

Molecular target: T1, PRMT5-MEP50 complex (full-length, purified) (human | , UniProt O14744 1-637; Q9BQA1 1-342)
T1 construct: Protein arginine methyltransferase 5 (PRMT5), human, of the full-length PRMT5-MEP50 complex; MEP50 (WDR77), of the full-length PRMT5-MEP50 complex; also called native PRMT5-MEP50; PRMT5-MEP50 methyltransferase; copies: 4 + 4
Test: fluorescence polarisation; competitive; tracer fluorescently labeled … (S1) 1 nM, PRMT5-MEP50 600 nM, unlabeled peptide titrated in two-fold dilutions; 50 mM HEPES, 250 mM NaCl, 1 mM TCEP, 0.01% Tween 20, pH 8.0, room temperature
Conditions: both partners purified

T1 sequence (O14744 whole entry, chain 1 of 2): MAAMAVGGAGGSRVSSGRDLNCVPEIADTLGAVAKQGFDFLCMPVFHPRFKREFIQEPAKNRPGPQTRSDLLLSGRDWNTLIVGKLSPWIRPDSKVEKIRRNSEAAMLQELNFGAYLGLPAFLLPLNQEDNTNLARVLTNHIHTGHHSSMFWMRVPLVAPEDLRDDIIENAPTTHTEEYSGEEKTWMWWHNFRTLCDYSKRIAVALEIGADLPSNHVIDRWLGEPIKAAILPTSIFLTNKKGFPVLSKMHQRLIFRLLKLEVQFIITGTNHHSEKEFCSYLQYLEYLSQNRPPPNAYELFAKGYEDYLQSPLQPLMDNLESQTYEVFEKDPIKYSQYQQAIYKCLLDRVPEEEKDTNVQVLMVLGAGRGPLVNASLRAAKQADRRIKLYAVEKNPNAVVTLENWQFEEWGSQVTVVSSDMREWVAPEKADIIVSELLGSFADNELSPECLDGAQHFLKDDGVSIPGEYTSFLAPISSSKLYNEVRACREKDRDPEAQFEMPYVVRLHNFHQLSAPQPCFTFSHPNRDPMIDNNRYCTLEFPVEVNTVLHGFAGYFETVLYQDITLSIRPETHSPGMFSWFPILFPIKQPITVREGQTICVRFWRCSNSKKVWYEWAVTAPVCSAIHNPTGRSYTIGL
T1 sequence (Q9BQA1 whole entry, chain 2 of 2): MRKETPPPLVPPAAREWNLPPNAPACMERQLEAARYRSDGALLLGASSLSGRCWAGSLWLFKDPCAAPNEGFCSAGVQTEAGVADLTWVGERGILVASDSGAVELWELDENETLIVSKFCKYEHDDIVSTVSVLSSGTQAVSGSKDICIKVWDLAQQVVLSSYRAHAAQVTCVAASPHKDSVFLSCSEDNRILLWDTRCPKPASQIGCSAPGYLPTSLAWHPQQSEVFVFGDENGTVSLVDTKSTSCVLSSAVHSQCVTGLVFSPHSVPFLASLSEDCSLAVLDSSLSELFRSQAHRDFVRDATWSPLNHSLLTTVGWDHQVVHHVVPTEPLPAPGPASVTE

binding result: binds
B1: fluorescently labeled SRVVPGQFDDADSSD RioK1 sequence (peptide)
peptide: SRVVPGQFDDADSSD
modifications: not fully specified; also: FITC label, position not given here
notes: also called S1; source: synthetic peptide
